# T1: sIL-6R (soluble IL-6 receptor; SBH Sciences) (human, UniProt P08887 20-365)
# T1 construct: also called human IL-6R
# T1 sequence: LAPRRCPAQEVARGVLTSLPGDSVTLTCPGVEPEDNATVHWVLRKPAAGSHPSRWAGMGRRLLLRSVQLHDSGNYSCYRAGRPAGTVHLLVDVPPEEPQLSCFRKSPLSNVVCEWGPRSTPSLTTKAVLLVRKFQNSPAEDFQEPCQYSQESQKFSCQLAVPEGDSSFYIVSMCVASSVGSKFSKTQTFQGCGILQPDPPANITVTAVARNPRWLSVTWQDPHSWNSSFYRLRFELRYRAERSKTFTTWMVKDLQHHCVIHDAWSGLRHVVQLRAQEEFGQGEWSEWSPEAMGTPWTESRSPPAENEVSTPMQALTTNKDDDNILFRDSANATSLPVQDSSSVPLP
# Target: T1, sIL-6R (soluble IL-6 receptor; SBH …)
# Test: SPR (BIAcore 3000), antibody on chip, sIL-6R analyte, 25 C
# Protocol: All SPR measurements were performed on a BIAcore 3000 instrument (GE Biosciences, Piscataway, N.J.). BIAcore Software-BIAcore 3000 Control Software V3.2 was used for the operation and control of the BIAcore 3000 instrument. BiaEvaluation Software V4.1 was used for the analysis of SPR data from the BIAcore 3000 instrument and data was plotted using Graph Pad Prism Software Version 5. […] The indicated antibodies were used as the ligand for the construction of the reference channel of the chip. […] Each sample was injected for 3 min at a flow rate of 30 μL/min to allow for binding to chip-bound antibody. Next, binding buffer without analyte was sent over the chip at the same flow rate to allow for dissociation of bound analyte. After 500s, remaining bound analyte was removed by injecting regeneration solution (1M Formic acid). Data was analyzed by using the Kinetics Wizard and the manual fitting programs that are both included with the BiaEvaluation Software V4.1.
Binder,Kd [nM],Relative Affinity,koff [s⁻¹],kon [M⁻¹ s⁻¹]
"227# (antibody, human IgG1, kappa, V domains shown, also called Sample # 227) VH: QVQLQESGPGLVRPSQTLSLTCTVSGYSITSDHAWSWVRQPPGRGLEWIGYISYSGMITYNPSLKSRVTMLRDTSKNQFSLRLSSVTAADTAVYYCARSLARATAMDYWGQGSLVTVSS VL: DIQMTQSPSSLSASVGDRVTITCRASQDISSYLNWYQQKPGKAPKLLIYYTSRLHSGVPSRFSGSGSGTDFTFTISSLQPEDIATYYCQQGNTLPYTFGQGTKVEIKR",0.477,6.6 fold vs 25 (Tocilizumab),6.9e-05,144000
"242# (antibody, human IgG1, kappa, V domains shown, also called Sample # 242) VH: QVQLQESGPGLVRPSQTLSLTCTVSGYSITSDHAWSWVRQPPGRGLEWIGYISYSGMITYNPSLKSRVTMLRDTSKNQFSLRLSSVTAADTAVYYCARSLARMTAIDFWGQGSLVTVSS VL: DIQMTQSPSSLSASVGDRVTITCRASQDISSYLNWYQQKPGKAPKLLIYYTSRLHSGVPSRFSGSGSGTDFTFTISSLQPEDIATYYCGQGNRLPYTFGQGTKVEIKR",1.24,2.6 fold vs 25 (Tocilizumab),8.71e-05,70200
"235# (antibody, human IgG1, kappa, V domains shown) VH: QVQLQESGPGLVRPSQTLSLTCTVSGYSITSDHAWSWVRQPPGRGLEWIGYISYSGMITYNPSLKSRVTMLRDTSKNQFSLRLSSVTAADTAVYYCARTLARMTAIDFWGQGSLVTVSS VL: DIQMTQSPSSLSASVGDRVTITCRASQDISSYLNWYQQKPGKAPKLLIYYTSRLHSGVPSRFSGSGSGTDFTFTISSLQPEDIATYYCQQGNTLPYTFGQGTKVEIKR",0.297,10.6 fold vs 25 (Tocilizumab),3.81e-05,128000
"239# (antibody, human IgG1, kappa, V domains shown) VH: QVQLQESGPGLVRPSQTLSLTCTVSGYSITSDHAWSWVRQPPGRGLEWIGYISYSGMITYNPSLKSRVTMLRDTSKNQFSLRLSSVTAADTAVYYCARCLARATAMDYWGQGSLVTVSS VL: DIQMTQSPSSLSASVGDRVTITCRASQDISSYLNWYQQKPGKAPKLLIYYTSRLHSGVPSRFSGSGSGTDFTFTISSLQPEDIATYYCGQGNRLPYTFGQGTKVEIKR",0.164,19.3 fold vs 25 (Tocilizumab),2.36e-05,144000
"241# (antibody, human IgG1, kappa, V domains shown) VH: QVQLQESGPGLVRPSQTLSLTCTVSGYSITSDHAWSWVRQPPGRGLEWIGYISYSGMTTYNPSLKSRVTMLRDTSKNQFSLRLSSVTAADTAVYYCARCLARMTAIDFWGQGSLVTVSS VL: DIQMTQSPSSLSASVGDRVTITCRASQDISSYLNWYQQKPGKAPKLLIYYTSRLHSGVPSRFSGSGSGTDFTFTISSLQPEDIATYYCGQGNRLPYTFGQGTKVEIKR",0.202,15.6 fold vs 25 (Tocilizumab),3.61e-05,179000
"228# (antibody, human IgG1, kappa, V domains shown, also called Sample # 228) VH: QVQLQESGPGLVRPSQTLSLTCTVSGYSITSDHAWSWVRQPPGRGLEWIGYISYSGMTTYNPSLKSRVTMLRDTSKNQFSLRLSSVTAADTAVYYCARCLARMTAIDFWGQGSLVTVSS VL: DIQMTQSPSSLSASVGDRVTITCRASQDISSYLNWYQQKPGKAPKLLIYYTSRLHSGVPSRFSGSGSGTDFTFTISSLQPEDIATYYCQQGNTLPYTFGQGTKVEIKR",0.204,15.5 fold vs 25 (Tocilizumab),3.04e-05,149000
"238# (antibody, human IgG1, kappa, V domains shown) VH: QVQLQESGPGLVRPSQTLSLTCTVSGYSITSDHAWSWVRQPPGRGLEWIGYISYSGMITYNPSLKSRVTMLRDTSKNQFSLRLSSVTAADTAVYYCARCLARTTAMDYWGQGSLVTVSS VL: DIQMTQSPSSLSASVGDRVTITCRASQDISSYLNWYQQKPGKAPKLLIYYTSRLHSGVPSRFSGSGSGTDFTFTISSLQPEDIATYYCGQGNRLPYTFGQGTKVEIKR",0.111,28.5 fold vs 25 (Tocilizumab),1.5e-05,135000
"244# (antibody, human IgG1, kappa, V domains shown) VH: QVQLQESGPGLVRPSQTLSLTCTVSGYSITSDHAWSWVRQPPGRGLEWIGYISYSGITTYNPSLKSRVTMLRDTSKNQFSLRLSSVTAADTAVYYCARTLARMTAIDFWGQGSLVTVSS VL: DIQMTQSPSSLSASVGDRVTITCRASQDISSYLNWYQQKPGKAPKLLIYYTSRLHSGVPSRFSGSGSGTDFTFTISSLQPEDIATYYCGQGNRLPYTFGQGTKVEIKR",0.166,19 fold vs 25 (Tocilizumab),2.33e-05,140000
"245# (antibody, human IgG1, kappa, V domains shown) VH: QVQLQESGPGLVRPSQTLSLTCTVSGYSITSDHAWSWVRQPPGRGLEWIGYISYSGMITYNPSLKSRVTMLRDTSKNQFSLRLSSVTAADTAVYYCARTLARMTAMDYWGQGSLVTVSS VL: DIQMTQSPSSLSASVGDRVTITCRASQDISSYLNWYQQKPGKAPKLLIYYTSRLHSGVPSRFSGSGSGTDFTFTISSLQPEDIATYYCGQGNRLPYTFGQGTKVEIKR",0.25,12.6 fold vs 25 (Tocilizumab),3.53e-05,141000
"234# (antibody, human IgG1, kappa, V domains shown) VH: QVQLQESGPGLVRPSQTLSLTCTVSGYSITSDHAWSWVRQPPGRGLEWIGYISYSGMTTYNPSLKSRVTMLRDTSKNQFSLRLSSVTAADTAVYYCARCLARMTAMDYWGQGSLVTVSS VL: DIQMTQSPSSLSASVGDRVTITCRASQDISSYLNWYQQKPGKAPKLLIYYTSRLHSGVPSRFSGSGSGTDFTFTISSLQPEDIATYYCQQGNTLPYTFGQGTKVEIKR",0.37,8.5 fold vs 25 (Tocilizumab),5.69e-05,154000
"230# (antibody, human IgG1, kappa, V domains shown, also called Sample # 230) VH: QVQLQESGPGLVRPSQTLSLTCTVSGYSITSDHAWSWVRQPPGRGLEWIGYISYSGMITYNPSLKSRVTMLRDTSKNQFSLRLSSVTAADTAVYYCARCLARTTAIDFWGQGSLVTVSS VL: DIQMTQSPSSLSASVGDRVTITCRASQDISSYLNWYQQKPGKAPKLLIYYTSRLHSGVPSRFSGSGSGTDFTFTISSLQPEDIATYYCQQGNTLPYTFGQGTKVEIKR",0.448,7.1 fold vs 25 (Tocilizumab),6.15e-05,137000
"240# (antibody, human IgG1, kappa, V domains shown, also called Sample # 240) VH: QVQLQESGPGLVRPSQTLSLTCTVSGYSITSDHAWSWVRQPPGRGLEWIGYISYSGMITYNPSLKSRVTMLRDTSKNQFSLRLSSVTAADTAVYYCARSLARATAMDYWGQGSLVTVSS VL: DIQMTQSPSSLSASVGDRVTITCRASQDISSYLNWYQQKPGKAPKLLIYYTSRLHSGVPSRFSGSGSGTDFTFTISSLQPEDIATYYCGQGNRLPYTFGQGTKVEIKR",0.15,21.1 fold vs 25 (Tocilizumab),2.3e-05,154000

# More lines, in order of falling Kd, values ahead:
Kd [nM],Relative Affinity,koff [s⁻¹],kon [M⁻¹ s⁻¹],Binder
0.605,5.2 fold vs 25 (Tocilizumab),7.49e-05,124000,"229# (antibody, human IgG1, kappa, V domains shown) VH: QVQLQESGPGLVRPSQTLSLTCTVSGYSITSDHAWSWVRQPPGRGLEWIGYISYSGMITYNPSLKSRVTMLRDTSKNQFSLRLSSVTAADTAVYYCARSLARMTAIDFWGQGSLVTVSS VL: DIQMTQSPSSLSASVGDRVTITCRASQDISSYLNWYQQKPGKAPKLLIYYTSRLHSGVPSRFSGSGSGTDFTFTISSLQPEDIATYYCQQGNTLPYTFGQGTKVEIKR"
0.387,8.2 fold vs 25 (Tocilizumab),5.75e-05,149000,"233# (antibody, human IgG1, kappa, V domains shown) VH: QVQLQESGPGLVRPSQTLSLTCTVSGYSITSDHAWSWVRQPPGRGLEWIGYISYSGMITYNPSLKSRVTMLRDTSKNQFSLRLSSVTAADTAVYYCARTLARTTAIDFWGQGSLVTVSS VL: DIQMTQSPSSLSASVGDRVTITCRASQDISSYLNWYQQKPGKAPKLLIYYTSRLHSGVPSRFSGSGSGTDFTFTISSLQPEDIATYYCQQGNTLPYTFGQGTKVEIKR"
0.319,9.9 fold vs 25 (Tocilizumab),4.81e-05,151000,"232# (antibody, human IgG1, kappa, V domains shown) VH: QVQLQESGPGLVRPSQTLSLTCTVSGYSITSDHAWSWVRQPPGRGLEWIGYISYSGMITYNPSLKSRVTMLRDTSKNQFSLRLSSVTAADTAVYYCARTLARMTAMDYWGQGSLVTVSS VL: DIQMTQSPSSLSASVGDRVTITCRASQDISSYLNWYQQKPGKAPKLLIYYTSRLHSGVPSRFSGSGSGTDFTFTISSLQPEDIATYYCQQGNTLPYTFGQGTKVEIKR"
0.273,11.6 fold vs 25 (Tocilizumab),1.94e-05,71000,"243# (antibody, human IgG1, kappa, V domains shown) VH: QVQLQESGPGLVRPSQTLSLTCTVSGYSITSDHAWSWVRQPPGRGLEWIGYISYSGMITYNPSLKSRVTMLRDTSKNQFSLRLSSVTAADTAVYYCARCLARTTAIDFWGQGSLVTVSS VL: DIQMTQSPSSLSASVGDRVTITCRASQDISSYLNWYQQKPGKAPKLLIYYTSRLHSGVPSRFSGSGSGTDFTFTISSLQPEDIATYYCGQGNRLPYTFGQGTKVEIKR"
0.0829,38.1 fold vs 25 (Tocilizumab),1.53e-05,185000,"236# (antibody, human IgG1, kappa, V domains shown) VH: QVQLQESGPGLVRPSQTLSLTCTVSGYSITSDHAWSWVRQPPGRGLEWIGYISYSGMTTYNPSLKSRVTMLRDTSKNQFSLRLSSVTAADTAVYYCARCLARATAMDYWGQGSLVTVSS VL: DIQMTQSPSSLSASVGDRVTITCRASQDISSYLNWYQQKPGKAPKLLIYYTSRLHSGVPSRFSGSGSGTDFTFTISSLQPEDIATYYCQQGNTLPYTFGQGTKVEIKR"

# — patent US20190315854A1 (BEIJING VDJBIO, published 2019)
